The supplement of paper PMC10567573
± gives the standard deviation.

Experiment: protein stability index of a GFP-peptide fusion (GPS, HEK-293T) (PSI 1-6); higher = more stable
[1] = treatment: DMSO, c terminus: a fixed tail appended
[2] = treatment: MLN4924 1 uM, 8 h, c terminus: a fixed tail appended
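Also: 24-mer peptide tiles fused after GFP, lentivirally expressed, FACS-sorted into six equal bins by GFP/DsRed ratio, decoded by Illumina sequencing, PSI is the read-weighted mean bin number.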

Row | Sequence | protein stability index [1] | protein stability index [2] | protein stability index (treatment: DMSO, c terminus: native) | protein stability index (treatment: MLN4924 1 uM, 8 h, c terminus: native)
1 | VVGNWQYFFPVIFSKASSSLQLVF [MAGEA3] | 3.28 ± 0.46 | 3.11 ± 0.55 |  | 
2 | VVHQRVHSGEKPYKCSDCGKTFKQ [ZNF232] | 3.29 ± 0.25 | 3.43 ± 0.23 |  | 
3 | VVPVLVFPPDLVFRADQRSGPRQL [MOSPD3] | 2.27 ± 0.38 | 2.41 ± 0.25 |  | 
4 | VWMLMLLLAVPNIILTNQSVREVT [P2RY14] | 3.27 ± 0.3 | 2.96 ± 0.46 |  | 
5 | VYNAARDGKLQLLQKLLSGRSREE [FEM1A] | 2.77 ± 0.15 | 2.79 ± 0.27 |  | 
6 | VYSLQDFDTLATVGTGTFGRVHLV [PRKX] | 2.42 ± 0.079 | 2.42 ± 0.37 |  | 
7 | WAQLEAPARLLLQALQAGPEGARR [FANCE] | 2.78 ± 0.37 | 3.08 ± 0.29 |  | 
8 | WFFLQSELKKLKNLEGNELQRHAD [FUT8] | 2.56 ± 0.34 | 2.71 ± 0.41 |  | 
9 | WFSCQGPFDMDSCLSRHSINPYSN [DFFB] | 2.35 ± 0.24 | 2.2 ± 0.27 |  | 
10 | WGEGLHQLREALKILAERVLILET [EMID1] | 2.47 ± 0.24 | 2.78 ± 0.31 |  | 
11 | WGFRLVGGRDFSAPLTISRVHAGS [PDLIM4] | 2.02 ± 0.24 | 2.17 ± 0.32 |  | 
12 | WHPKPYCQALPYGPGYWMCCHRSQ [FBXO34] | 2.32 ± 0.37 | 2.08 ± 0.14 |  | 
13 | WKVRAEKEACQREKELPAAVHPFH [ZBED2] | 3.9 ± 0.18 | 3.93 ± 0.15 |  | 
14 | WLFGATAVALGGVALSVVIAARN [FKBP8] |  |  | 2.51 ± 0.55 | 2.59 ± 0.4
15 | WNDFLMCYSSRPLLCWSVWWALST [SLC19A2] | 3.5 ± 0.3 | 3.32 ± 0.46 |  | 
16 | WRRSGKYVYKPVMNQTCCPQYTIR [ATE1] | 2.03 ± 0.22 | 2.32 ± 0.32 |  | 
17 | WSIVGMAVVKGIQSSGKVMYFSSL [SLC6A17] | 2.94 ± 0.68 | 2.6 ± 0.78 |  | 
18 | YAPPPTPAPATQMPSTPGFVGYNP [SMARCE1] | 3.01 ± 0.36 | 3.72 ± 0.32 |  | 
19 | YEAIAKHNQVEAAWLEGRIRQEFD [TRIM35] | 3.9 ± 0.25 | 3.85 ± 0.18 |  | 
20 | YEKKQTLGQNDTGFSCDGTANTFR [BTBD1] | 4.23 ± 0.3 | 4.15 ± 0.14 |  | 

Row | Sequence | protein stability index [1] | protein stability index [2] | protein stability index (treatment: DMSO, c terminus: native) | protein stability index (treatment: MLN4924 1 uM, 8 h, c terminus: native)
21 | YFHINQTLREAHFHSLQHRGRPLT [FAM104A] | 2.96 ± 0.15 | 3.21 ± 0.31 |  | 
22 | YFRDLPEPLMTNKLSETFLQIYQY [DLC1] | 2.37 ± 0.32 | 2.26 ± 0.24 |  | 
23 | YFYLGGARGAGPPEPLRICPLHIS [TRIM35] | 2.44 ± 0.28 | 2.04 ± 0.32 |  | 
24 | YGAVELSGAGRRKNATRETTSTLK [IRX6] | 4.56 ± 0.38 | 4.52 ± 0.29 |  | 
25 | YGPRWQEVIPYTPAMQRYVKRLHE [HMOX1] | 3.09 ± 0.4 | 3.4 ± 0.24 |  | 
26 | YGSDQQHHLGSGSGAGGTGGPAGQ [MYOZ1] | 4.93 ± 0.23 | 4.77 ± 0.28 |  | 
27 | YKKIYFCHSCQLYLPSTEFSVSST [IQUB] | 2.39 ± 0.23 | 2.08 ± 0.22 |  | 
28 | YKSFSKEQQTMDNLEKQLICPICL [TRIM55] | 2.72 ± 0.38 | 2.77 ± 0.8 |  | 
29 | YKVNTPMLQSFINYCLLFLIYTVM [SLC35F2] | 2.35 ± 0.8 | 2.44 ± 0.38 |  | 
30 | YLIRVDGKGSIKELFPTGKQLEPL [VPS39] | 2.49 ± 0.23 | 2.21 ± 0.23 |  | 
31 | YLLHGLECVVAMHQAQLISKIPHI [EIF5] | 3.37 ± 0.11 | 3 ± 0.25 |  | 
32 | YLPTRGGTTMASGGRFRCPSCRHE [TRIM55] | 2.69 ± 0.57 | 3.42 ± 0.43 |  | 
33 | YMVQDQHECILPFVQVKGNFARLQ [M1AP] | 2.56 ± 0.37 | 2.55 ± 0.42 |  | 
34 | YPSLYYPEMYILKGGYKEFFPQHP [CDC25B] | 1.78 ± 0.2 | 2.12 ± 0.43 |  | 
35 | YQCPDQMARNPAAIDMFIIGATFT [FBXO3] | 3.02 ± 0.48 | 2.51 ± 0.77 |  | 
36 | YRLTEHERAHKGEKPYGCSECGKA [ZNF649] | 4.55 ± 0.38 | 4.85 ± 0.36 |  | 
37 | YSDNPCSCSQSHCCSRYLCMGAMS [SPRY1] | 2.62 ± 0.22 | 2.71 ± 0.35 |  | 
38 | YVALQTKGALQKKPLYVAFSFMYI [KCNK9] | 3.44 ± 0.89 | 2.85 ± 0.8 |  | 
39 | YVHWPYCEKRCSYCNFNKYIPRRL [RSAD1] | 2.62 ± 0.51 | 2.45 ± 0.34 |  | 
40 | YYYMGFYIHSCPKMKYKGQYRPSD [ATE1] | 2.25 ± 0.82 | 2.45 ± 0.2 |  | 
